Here are results for 16 molecules from US20180258175A1 (ABLEXIS, published 2018).

Experiment [1] concerns the target T1, human CD115 extracellular domain (Sino Biological 10161-H08H) (human, UniProt P07333 20-517).
T1 construct: extracellular domain; bought recombinant protein; also called huCD115; hu-CD115
The experiment can be described thus: competition ELISA, competitor TMR 44B.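 Also: binding of antibodies from single-clone hybridoma supernatants to huCD115 measured with the competitor antibody present, a drop in signal meaning both share an epitope bin.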 On the technique in general: ELISA stands for enzyme-linked immunosorbent assay.

The target in experiment [2] is T1, human CD115 extracellular domain (Sino …). In words: competition ELISA, competitor TMR 24A.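 Also: clonal anti-huCD115 hybridoma supernatant antibodies bound with a competitor mouse antibody present, and failure to bind puts a clone in that competitor's epitope bin.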
For experiment [3] the target is unchanged. The experiment can be described thus: competition ELISA, competitor TMR 35A.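 Also: clonal hybridoma supernatant antibodies added to wells after the competitor mouse antibody, lost binding signal puts an antibody in that competitor's epitope bin.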
For experiment [4] the target is unchanged. In words: competition ELISA, competitor TMR 100A.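 Also: clonal anti-huCD115 hybridoma supernatants tested for binding with the competitor antibody present, clones failing to bind are assigned to the competitor's epitope bin.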
For experiment [5] the target is unchanged. In words: competition ELISA, competitor TMR 95A.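 Also: clonal anti-huCD115 hybridoma supernatants tested for binding while a competitor mouse antibody is present, where failure to bind assigns them to that competitor's epitope bin.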
Experiment [6] shares this target. The experiment can be described thus: competition ELISA, competitor TMR 20A.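 Also: epitope binning by ELISA, anti-huCD115 hybridoma supernatant antibodies tested for binding to huCD115 with the competitor antibody present, loss of binding placing them in the competitor's bin.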
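Also: low signal means same epitope bin as the mouse competitor antibody.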

B1: CCK-468A (antibody, V domains shown)
VH: EVQLVESGGGLVQPGRSLRLSCTASGFTFGDYAMTWFRQAPGKGLEWVGFIRSKAYGGTTEYAASVKGRFTISRDDSKSIAYLQMNSLKTEDTAVYYCTREGSFGALDIWGQGTMVTVSS
VL: not shown
notes: AlivaMab chimeric IgG, human kappa LC
Regarding B1, the “signal vs NO COMP=100” value in experiment [1] is 24%; in experiment [2], 85%; in experiment [3], 104%; in experiment [4] it was 95%; in experiment [5], 61%; in experiment [6], 53%.

B2: CCK-412A (antibody, V domains shown)
VH: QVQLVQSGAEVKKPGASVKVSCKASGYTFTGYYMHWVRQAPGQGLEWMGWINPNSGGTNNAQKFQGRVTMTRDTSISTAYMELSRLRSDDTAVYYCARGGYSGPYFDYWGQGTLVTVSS
VL: DIQMTQSPSSVSASVGDRVTITCRASPGISSWLAWYQQKPEKAPKLLIYAASSLQSGVPSRFSGSGSGTDFTLTISSLQPEDFATYYCQQAYSFPYTFGQGTKLEIK
notes: as for B1
B2: the “signal vs NO COMP=100” value in experiment [1] was determined as 110%; in experiment [2], 13%; in experiment [3], 78%; in experiment [4], 91%; in experiment [5], 3%; in experiment [6] it was 70%.

B3: CCK-525A (antibody, V domains shown)
VH: QVQLVESGGGVVQPGRSLRLSCAASGFTFSSYGMHWVRQAPGKGLEWVAVIWYDGSIKYYADSVKGRFTISRDNSKNTLYLQMNSLRAEDTAVYYCARATYYYDSSGYYSNWFDPWGQGTLVTVSS
VL: DIQMTQSPSSVSASVGDRVTITCRASQGISSWLAWYQQKPGKAPKLLIYAASSLQSGVPSRFSGSGSGTDFTLTISSLQPEDFATYYCQQANTFPFTVGPGTKVDIK
notes: as for B1
Take B3: the “signal vs NO COMP=100” value amounted to 56% in experiment [1]; 13% in experiment [2]; 88% in experiment [3]; 100% in experiment [4]; 11% in experiment [5]; 80% in experiment [6].

B4: 549 (Table 4, bin 1D block) (antibody, V domains shown)
VH: QVQFVESGGGVVQPGRSLRLSCAASGFTLSSYGMHWVRQAPGKGLEWVAVIWYDGSNEYYADSVKGRFTISRDNSKNTLYLQMNSLRAEDTAVYYCARDRAWGSGDWGQGTLVTVSS
VL: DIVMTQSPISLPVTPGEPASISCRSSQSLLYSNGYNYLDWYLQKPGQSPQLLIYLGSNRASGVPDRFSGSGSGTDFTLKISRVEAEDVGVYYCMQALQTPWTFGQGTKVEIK
notes: not tied
For B4, the “signal vs NO COMP=100” value in experiment [1] was 2%; in experiment [2], 111%; in experiment [3], 89%; in experiment [4], 100%; in experiment [5] it was 1%; in experiment [6] it was 59%.

B5: CCK-435A (antibody, V domains shown)
VH: QVQLQQWGAGLLKPSETLSLTCAVYGGSCSAYYWSWIRQPPGKGLEWIGEINHSGSTNYNPSLKSRVTISVDTSRNQFSLKLSSVTAADTAVYYCAREADAFDIWGQGTMVTVSS
VL: not shown
notes: as for B1
Take B5: the “signal vs NO COMP=100” value stood at 75% in experiment [1]; 79% in experiment [2]; 96% in experiment [3]; 17% in experiment [4]; 86% in experiment [5]; 85% in experiment [6].

B6: CCK-455A (antibody, V domains shown)
VH: EVQLVESGGGLVQPGGSLRLSCAASGFTFSSYWMHWVRQAPGKGLVWVSRINSDGSSTSYADSVKGRFTISRDNAKNTLYLQMNSLRAEDTAVYYCARDGGTTGAFDIWGQGTMVTVSS
VL: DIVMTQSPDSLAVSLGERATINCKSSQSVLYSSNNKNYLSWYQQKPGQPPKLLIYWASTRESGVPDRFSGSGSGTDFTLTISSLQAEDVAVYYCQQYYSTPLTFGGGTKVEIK
notes: as for B1
As for B6, the “signal vs NO COMP=100” value in experiment [1] is 28%; in experiment [2] it was -1%; in experiment [3], 54%; in experiment [4], 79%; in experiment [5], 0%; in experiment [6], 58%.

B7: CCK-458A (antibody, V domains shown)
VH: QITLKESGPPLVKPTQTLTLTCTFSGFSLSTSGVGVGWIRQPPGKALEWLALIYWNDDKRYSPSLKSRLTITKDTSKNQVVLTMTNMDPVDTATYYCAHSPRYSGYFDYWGQGTLVTVSS
VL: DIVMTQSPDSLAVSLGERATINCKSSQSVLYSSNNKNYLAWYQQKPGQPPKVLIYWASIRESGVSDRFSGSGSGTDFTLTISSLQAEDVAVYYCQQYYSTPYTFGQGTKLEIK
notes: as for B1
B7: the “signal vs NO COMP=100” value in experiment [1] came out at 17%; in experiment [2], 2%; in experiment [3], 66%; in experiment [4] it was 79%; in experiment [5], 6%; in experiment [6], 22%.

B8: CCK-464A (antibody, V domains shown)
VH: EVQLVESGGGLVKPGGSLRLSCAASGFTFSSYNMNWVRQAPGKGLEWVSSISSSSTYIYYADSLKGRFTISRDNAMNSLYLQMSSLRAEDTAVYYCARDSGTYPYYYFGMDVWGQGTTVTVSS
VL: DIQLTQSPSFLSASVGDRVTITCRASQGISSYLAWYQQKPGKAPKLLIYAASTLQSGVPSRFSGSGSGTEFTLTISSLQPEDFATYYCQQLNTYPRTFGQGTKVEIK
notes: as for B1
With B8, the “signal vs NO COMP=100” value was 0% in experiment [1]; 39% in experiment [2]; 85% in experiment [3]; 96% in experiment [4]; 57% in experiment [5]; 87% in experiment [6].

B9: CCK-514A (antibody, V domains shown)
VH: EVQLVESGGGLVKPGGSLRLSCAASGFTFSSYSMNWVRQAPGKGLEWVSSISSSSSYIYYADSVKGRFTISRDNAKNSLYLQMNSLRAEDTAVYYCARGGSYPYNWFDPWGQGTLVTVSS
VL: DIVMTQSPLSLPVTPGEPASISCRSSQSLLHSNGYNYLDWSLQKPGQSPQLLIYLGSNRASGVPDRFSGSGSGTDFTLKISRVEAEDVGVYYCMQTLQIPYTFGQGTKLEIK
notes: as for B1
For B9, the “signal vs NO COMP=100” value in experiment [1] came to 4%; in experiment [2], 53%; in experiment [3], 75%; in experiment [4], 103%; in experiment [5], 42%; in experiment [6], 84%.

B10: CCK-424A (antibody, V domains shown)
VH: QVQLQESGPGLVKPSETLSLTCTVSGGSISSYYWSWIRQPPGKVLEWIGYFSYNGNTNYNPSLKSRVTISVDTSKNQFSLKLSSVTAADTAVYYCTRGMDVWGQGTTVTVSS
VL: DIQMTQSPSTLSASVGDRVTITCRASQSISDWLAWYLQKPGKAPKLLIYKASSLESGVPSRFSGSGSGTAFTLTISSLQPDDFATYYCQQYNSHWTFGQGTKVEIK
notes: as for B1
As for B10, the “signal vs NO COMP=100” value was 53% in experiment [1]; 29% in experiment [2]; 102% in experiment [3]; 98% in experiment [4]; 16% in experiment [5]; 98% in experiment [6].

B11: CCK-421A (antibody, V domains shown)
VH: QVQLQESGPGLVKPSETLSLTCTVTGGSISSYYWSWIRQPAGKGLEWIGRIYTSGSTNYNPSLKSRVTMSVDTSKNHFSLKLSSVTAADTAVYYCAREILVVVAATRTGGVFDIWGQGTMVTVSS
VL: DIQMTQSPSTLSASVGDRVTITCRASQSISSWLAWYQRKPGKAPKLLIYKASTLESGVPSRFSGSGSGTEFTLTISSLQPDDFATYYCQQFNSYWTFGQGTKVEIK
notes: as for B1
Turning to B11, the “signal vs NO COMP=100” value in experiment [1] worked out at 55%; in experiment [2], 18%; in experiment [3], 100%; in experiment [4] it was 99%; in experiment [5], 9%; in experiment [6], 104%.

B12: 487 (Table 4, bin 3 block) (antibody, V domains shown)
VH: QVQLQESGPGLVKPSETLSLTCTVSGGSISSYYWSWIRQPAGKGLEWIGHIFSSGSTNYNPSLKSRVTMSVDTSKSQFSLKLSSVTAADTAVYLCARGGVTWFDPWGQGTLVTVSS
VL: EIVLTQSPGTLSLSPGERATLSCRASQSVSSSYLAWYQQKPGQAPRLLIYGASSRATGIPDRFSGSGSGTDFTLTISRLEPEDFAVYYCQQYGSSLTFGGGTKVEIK
notes: not tied
On to B12, for which the “signal vs NO COMP=100” value in experiment [1] was 94%; in experiment [2] it was 86%; in experiment [3], 6%; in experiment [4], 103%; in experiment [5] it was 84%; in experiment [6] it was 97%.

B13: CCK-402A (antibody, V domains shown)
VH: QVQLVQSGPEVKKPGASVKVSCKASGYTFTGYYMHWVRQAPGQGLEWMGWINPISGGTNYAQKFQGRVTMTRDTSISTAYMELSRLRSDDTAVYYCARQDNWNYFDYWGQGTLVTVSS
VL: DIVMTQTPLSLPVTPGEPASISCRSSQSLLDSDDGNTYLDWFLQKPGQSPQLLIYTLSYRASGVPDRFSGSGSGTDFTLKISRVEADDVGVYYCMQRIEFPFTFGQGTKLEIK
notes: as for B1
For B13, the “signal vs NO COMP=100” value in experiment [1] is 126%; in experiment [2], 131%; in experiment [3] it was 11%; in experiment [4], 147%; in experiment [5], 131%; in experiment [6], 145%.

B14: CCK-516A (antibody, V domains shown)
VH: not shown
VL: DIVMTQTPLSLPVTPGEPASISCRSSQSLLDSDDGNTYLDWYLQKPGQSPQLLIYTLSYRASGVPDRFSGSGSGTDFTLKISRVEAEDVGVYYCMQRIEFPLTFGGGTKVEIK
notes: as for B1
As to B14, the “signal vs NO COMP=100” value in experiment [1] was determined as 10%; in experiment [2] it was 39%; in experiment [3], 82%; in experiment [4], 87%; in experiment [5] it was 20%; in experiment [6], 70%.

B15: 429 (Table 4, bin 1C block) (antibody, V domains shown)
VH: QVQLEQSGAEVKRPGASVKVSCKASGYTFTGYYMHWVRQAPGQGLEWMGWINPNRGDTNYAQKFQGRVTMTRDTSISTAYMELSRLRSDDTAVYYCARDLEGGGPFDYWGQGTLVTVSS
VL: DIVMTQTPLSLPVTPGEPASISCRSSQSLLDSDDGNTYLDWYLQKPGQSPQLLIYTLSYRASGVPDRFSGSGSGTDFTLKISRVEAEDVGVYYCMQRIEFPSTFGQGTRLEIK
notes: not tied
Consider B15, for which the “signal vs NO COMP=100” value in experiment [1] is 45%; in experiment [2] it was 75%; in experiment [3], 112%; in experiment [4], 107%; in experiment [5] it was 38%; in experiment [6], 84%.

B16: CCK-461A (antibody, V domains shown)
VH: QVQLQESGPGLVKPSETLSLTCTVSGGSISSYYWTWIRQPPGKGLEWIGYISYSGGTNYNPSLKSRVTISVDTSKNQFSLKLSSVTAADTAVYYCARELGNYWGQGTLVTVSS
VL: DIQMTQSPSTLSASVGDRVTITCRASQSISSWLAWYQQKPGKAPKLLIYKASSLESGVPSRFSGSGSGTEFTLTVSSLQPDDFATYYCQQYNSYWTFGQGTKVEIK
notes: as for B1
Turning to B16, the “signal vs NO COMP=100” value is 41% in experiment [1]; 27% in experiment [2]; 110% in experiment [3]; 110% in experiment [4]; 15% in experiment [5]; 110% in experiment [6].
